B6: KP3-17 (anti-Rh17), as used in Example 8 (antibody, V domains shown)
VH: EVQLLESGPGLLKPSETLSLTCAVSGAPISNYWWSWIRQSPGKGLEWIGEIDGSIYTTYYNPSLKSRVAISKDTSKNRLSLKLTSVTAADTAVYYCAREGQNPLVPTYGSTGFGLDFWGHGLAVTVSS
VL: AAELTQSPSSLSASVGDRVTITCQASQGISSWLAWYQQKPGKAPKLLIYKASSLQSGVPSRFSGSGSGTDFTLTISSLQSEDFATYYCQQYSSSPRTFGQGTKVEIK

Experiment [1] concerns the target T1, Band 3 / glycophorin A (Wright b, Wrb epitope) on human red blood cells (human, UniProt P02724 20-150).
T1 construct: whole, on cells; also called Band3/GPA; AE1
T1 sequence 1: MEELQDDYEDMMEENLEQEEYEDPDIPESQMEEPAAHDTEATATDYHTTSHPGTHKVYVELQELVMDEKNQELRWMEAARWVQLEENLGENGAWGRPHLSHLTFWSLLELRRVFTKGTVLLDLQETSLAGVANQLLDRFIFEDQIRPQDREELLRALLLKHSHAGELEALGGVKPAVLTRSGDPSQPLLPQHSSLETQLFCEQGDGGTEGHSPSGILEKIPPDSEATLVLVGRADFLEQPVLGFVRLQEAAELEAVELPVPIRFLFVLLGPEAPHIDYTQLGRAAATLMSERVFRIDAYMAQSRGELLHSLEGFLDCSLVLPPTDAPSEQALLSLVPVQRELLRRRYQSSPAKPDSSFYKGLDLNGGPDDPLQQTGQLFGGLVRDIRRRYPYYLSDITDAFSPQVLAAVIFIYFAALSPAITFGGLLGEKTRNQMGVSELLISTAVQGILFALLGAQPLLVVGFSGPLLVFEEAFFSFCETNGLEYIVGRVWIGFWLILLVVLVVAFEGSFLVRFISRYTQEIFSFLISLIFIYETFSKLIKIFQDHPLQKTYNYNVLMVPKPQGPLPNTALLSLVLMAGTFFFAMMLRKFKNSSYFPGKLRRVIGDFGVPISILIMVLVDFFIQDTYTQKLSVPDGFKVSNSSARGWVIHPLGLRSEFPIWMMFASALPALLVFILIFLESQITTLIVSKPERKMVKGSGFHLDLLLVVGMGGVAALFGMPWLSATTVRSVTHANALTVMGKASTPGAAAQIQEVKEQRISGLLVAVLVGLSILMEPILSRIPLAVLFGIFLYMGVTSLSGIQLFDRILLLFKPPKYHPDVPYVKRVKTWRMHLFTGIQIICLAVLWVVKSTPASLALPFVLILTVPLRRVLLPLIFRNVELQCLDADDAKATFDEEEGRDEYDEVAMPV
T1 sequence 2: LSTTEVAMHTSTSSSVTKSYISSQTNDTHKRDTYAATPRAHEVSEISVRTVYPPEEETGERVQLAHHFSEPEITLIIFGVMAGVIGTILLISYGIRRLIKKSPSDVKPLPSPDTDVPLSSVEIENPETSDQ
As to the kind of experiment: dissociation of 125I-labelled protein from saturated human RBCs. The procedure: (§1) Recombinant proteins were radiolabeled with Na¹²⁵I (Perkin Elmer, Exton, Pa.) using pre-formulated iodination reagent (Pierce Iodination Reagent, Thermo Fisher Scientific, Carlsbad, Calif.) per the manufacturer's protocol. Radiochemical purity was verified by instant thin layer chromatography on silica and was typically >95%. Radiolabeled proteins were added to human RBCs at 0.02% hematocrit in PBS with 2% human AB serum. Binding was allowed to reach equilibrium over 4 hours at 37 degrees C. After binding, cell suspensions were rapidly washed at least four times with cold PBS. The resulting cell pellet was counted using a Perkin Elmer Wizard2 gamma counting system. Dissociation of the fusion proteins was assessed using RBCs saturated with radiolabeled proteins, washing unbound ligands, and placing in dilute suspensions prior to measurement of bound ligand at specified time points. Similar binding experiments were performed with fluorescently-labeled recombinant proteins and cells were analyzed by flow cytometry (Accuri C6, BD Biosciences, San Jose, Calif.). Fluorescently labeled proteins were produced by reaction with amine-reactive derivatives of fluorescent dyes AlexaFlour488 and AlexaFlour647 (typically 10- to 20-fold excess at pH 8) and purified using 10,000 MWCO centrifugal filter devices (EMD Milipore, Billerica, Mass.).

For experiment [2], the target named is T1, Band 3 / glycophorin A (Wright b, Wrb …). As to the kind of experiment: direct binding of 125I-labelled protein to human RBCs, 4 h at 37 C. The procedure:
as §1

Experiment [3] addresses B6. The experiment can be described thus: peptide competition, flow cytometry on human erythrocytes; RhD loop peptide as negative control. The source says: Flow cytometry was used to assess the binding of anti-Rh17 to human erythrocytes in the presence and absence of linear peptides corresponding to the amino acid sequence 6th extracellular loop of human RhD (negative control) and human RhCE. […] (* denotes p<0.05 by 1-way ANOVA with Tukey's post-hoc test).
Rh17 recognizes an epitope present in the 6th extracellular loop of human RhCE. Flow cytometry was used to assess the binding of Rh17 to human erythrocytes in the presence and absence of linear peptides corresponding to the amino acid sequence 6th extracellular loop of human RhD (negative control) and human RhCE (FIG. 26).
On the technique in general: In flow cytometry, cells or beads pass a laser one at a time.

The target of experiment [4] is T2, human RhCE protein (RHCE; Rh17/Hr0 epitope) on human red blood cells (human, UniProt P18577 2-417).
T2 construct: Target on intact human RBCs of donors
T2 chain: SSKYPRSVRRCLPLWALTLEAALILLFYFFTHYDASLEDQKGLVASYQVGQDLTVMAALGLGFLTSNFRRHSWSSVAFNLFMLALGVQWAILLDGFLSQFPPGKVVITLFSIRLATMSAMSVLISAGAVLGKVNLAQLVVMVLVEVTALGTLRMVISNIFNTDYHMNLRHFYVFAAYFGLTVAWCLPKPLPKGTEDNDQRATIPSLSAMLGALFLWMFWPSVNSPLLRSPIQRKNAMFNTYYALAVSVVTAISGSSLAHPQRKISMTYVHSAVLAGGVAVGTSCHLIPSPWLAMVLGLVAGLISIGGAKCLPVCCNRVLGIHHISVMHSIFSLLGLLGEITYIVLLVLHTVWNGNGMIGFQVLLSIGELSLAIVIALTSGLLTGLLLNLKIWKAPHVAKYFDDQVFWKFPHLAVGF
The experiment can be described thus: Fab/phage binding assays on human RBCs incl. rare RBC types lacking conserved antigens. The procedure:
An IgG Fab/phage display library was prepared from the peripheral blood lymphocytes of a hyperimmunized macaque using homologous human V-region oligonucleotides (Siegel D L, R. M., Lee H, Blancher A., Production of large repertories of macaque mAbs to human RBCs using phage display. Transfusion, 1999. 39(S10): p. 92S, which is incorporated herein by reference). Fab/phage specific for human RBCs were isolated by panning on intact human RBCs. Monoclonal Fab/phage were grown to produce antibodies for immunoassays and their corresponding DNA was extracted for sequencing. To identify target epitopes, antibodies were screened against RBCs of known serologic phenotypes, including rare cells lacking highly conserved antigens, using standard immunohematologic techniques (Roback, J. D., Technical Manual. 2014: American Association of Blood Banks (AABB), which is incorporated herein by reference.)
Using antibody phage display, we identified non-human-primate Fab antibody fragments to antigenic determinants on human RBCs. By panning phage libraries on human RBCs, we produced a Fab/phage preparation with >10⁷ RBC-specific clones capable of agglutinating human RBCs. By performing binding assays against rare RBC types lacking highly conserved antigens and epitopes, we identified the target antigens of >30 of these clones. At least 34 clones bound the Wright b (Wrb) epitope formed by a Band 3/GPA interaction, present on the RBCs of essentially 100% of the human population. The Wrb epitope, determined by the protein sequence of Band 3, is a site of association between Band 3 with GPA, and GPA expression is simultaneously required for its presence on the membrane (Huang C H, Reid M E, Xie S S, Blumenfeld 00. Human red blood cell Wright antigens: a genetic and evolutionary perspective on glycophorin A-band 3 interaction. Blood. 1996; 87(9):3942-3947). At least 3 other clones bound to a highly-conserved epitope Rh17(Hr0) on human RhCE protein, also present on essentially 100% of the human population. Both these targets are specific for erythroid lineage (Rojewski M T, Schrezenmeier H, Flegel W A. Tissue distribution of blood group membrane proteins beyond red cells: evidence from cDNA libraries. Transfus Apher Sci.

Experiment [5] addresses T2, human RhCE protein (RHCE; Rh17/Hr0 …). As to the kind of experiment: dissociation of 125I-labelled protein from saturated human RBCs. On the procedure: as §1
For experiment [6] the target is unchanged. As to the kind of experiment: direct binding of 125I-labelled protein to human RBCs, 4 h at 37 C. The procedure: as §1
For experiment [7] the target is unchanged. As to the kind of experiment: Western blot of reduced, denatured proteins from human erythrocyte ghosts. The procedure:
A Western blot was performed to assess the binding of KP3-17 (anti-Rh17) to proteins extracted from mouse and human erythrocyte ghosts. Because proteins were denatured in reducing SDS-PAGE buffer prior to gel electrophoresis, the presence of binding is due to interaction with linear, and not conformational, epitopes. This is in contrast to anti-RhCE mAbs described by other groups, which recognize conformational epitopes.
A Western blot was performed to assess the binding of Rh17 to proteins extracted from mouse and human erythrocyte ghosts (FIG. 25). Because proteins were denatured in reducing SDS-PAGE buffer prior to gel electrophoresis, the presence of binding is due to interaction with linear, and not conformational, epitopes. This is in contrast to anti-RhCE mAbs described by other groups, which recognize conformational epitopes.
Background: In western blotting, separated proteins are transferred to a membrane and probed.

B1: aWrb scFv (anti-Band3/GPA), clone KP2-23 (scFv)
scFv: EVQLLESGPGLVKPSETLSLTCTVSGSSLSSAYGWNWIRQPPGKGLEWIGSIGGSRDNTNYNPSLKRRVTISKDTSKNQFSLKLKSVTAADTAVYYCAQRGAYGYSYFDYWGQGVLVAVSSGGGGSGGGGSGGGGSAAELTLTQSPATLSLSPGETATLSCRASQTVGRNLAWYQQRPGQAPNLLVHSAYFRATGIPDRFSGSGSGTDFTLTISSLEPEDAGVYHCQQYNDLLPLTFGGGTKVEIK
modifications: radio-iodinated (125I) or amine-labelled with AlexaFluor 488/647 in the binding assays; sites not stated
notes: scFv produced as H2N-VH-(GGGGS)3-VL-FLAGx3-COOH in E. coli periplasm; also called anti-Wrb scFv; KP2-23 scFv; not shown: C-terminal FLAGx3 tag
For B1, the koff in experiment [1] amounted to 2.9e-05 s⁻¹. The molecule also returned a Kd in experiment [2] of 21.3 nM.

B2: linear peptide corresponding to the 6th extracellular loop of human RhD (peptide, UniProt Q02161 346-360, looked up)
peptide: LLVLDTVGAGNGMIG
notes: domain: 6th extracellular loop; Negative control peptide; also called RhD peptide (negative control)
In the case of B2, in experiment [3], the binding result is given as “no binding”.

B3: KP3-11 Fab/phage clone (anti-RHCE, Rh17) (Fab, V domains shown)
VH: EVQLLESGPGLVKPSETLSLTCGVSGASISNYWWSWIRQSPGKGLEWIGEIDGSTYSTHYNPSLKGRVTISKDASKNQLSLRLTSVTAADTAVYYCAREGQDPLAPTLATSGSGLDSWGRGLVVSVSS
VL: ELQMTQSPSSLSASLGDRVTITCRASENVNNYLHWYQQKPGKAPKLLIYAASTLQSGVPSRFSGSGSGTDFTLTISSLQPEDVATYYCQHSYGTPLTFGGGTKVEIK
With B3, the binding result in experiment [4] is given as “binds”.

B4: KP3-14 Fab/phage clone (anti-RHCE, Rh17) (Fab, V domains shown)
VH: EVQLLESGPGLGKPSETLSLTCGVSGASISNYWWSWIRQSPGKGLEWIGEIDGSTYSTHYNPSLKGRVTISKDASKNQLSLRLTSVTAADTAVYYCAREGQDPLAPTLATSGSGLDSWGRGLVVTVSS
VL: ELQMTQSPSALSASVGDRVTISCRASQDIYSNLAWYQQKPGKAPKLLIYGASRLQSGIPSRFSASGAGTEFTLTISGLQPEDSAVYYCQEVHRNPFTFGPGTKLDIK
In the case of B4, the binding result in experiment [4] is reported as “binds”.

B5: aRh17 scFv (anti-RhCE), clone KP3-17 (scFv)
scFv: EVQLLESGPGLLKPSETLSLTCAVSGAPISNYWWSWIRQSPGKGLEWIGEIDGSIYTTYYNPSLKSRVAISKDTSKNRLSLKLTSVTAADTAVYYCAREGQNPLVPTYGSTGFGLDFWGHGLAVTVSSGGGGSGGGGSGGGGSAAELTQSPSSLSASVGDRVTITCQASQGISSWLAWYQQKPGKAPKLLIYKASSLQSGVPSRFSGSGSGTDFTLTISSLQSEDFATYYCQQYSSSPRTFGQGTKVEIK
modifications: radio-iodinated (125I) or amine-labelled with AlexaFluor 488/647 in the binding assays; sites not stated
notes: scFv produced as H2N-VH-(GGGGS)3-VL-FLAGx3-COOH in E. coli periplasm (pBAD/gIII); Macaque-derived; also called anti-Rh17 scFv; aRHCE scFv; not shown: C-terminal FLAGx3 tag
In turn, B5 displayed a koff in experiment [5] of 2e-05 s⁻¹. The same molecule returned an equilibrium dissociation constant (Kd) in experiment [6] of 41.4 nM.
In the case of B6, the binding result in experiment [7] is recorded as “binds”.

B7: KP3-17 Fab/phage clone (anti-RHCE, Rh17) (Fab, V domains shown)
VH: EVQLLESGPGLLKPSETLSLTCAVSGAPISNYWWSWIRQSPGKGLEWIGEIDGSIYTTYYNPSLKSRVAISKDTSKNRLSLKLTSVTAADTAVYYCAREGQNPLVPTYGSTGFGLDFWGHGLAVTVSS
VL: AAELTQSPSSLSASVGDRVTITCQASQGISSWLAWYQQKPGKAPKLLIYKASSLQSGVPSRFSGSGSGTDFTLTISSLQSEDFATYYCQQYSSSPRTFGQGTKVEIK
With B7, the binding result in experiment [4] is reported as “binds”.

The koff is the first-order rate constant of dissociation. High values mean fast dissociation, low ones slow dissociation. What is called Kd is the free concentration of one partner at which half of the binding sites on the other are occupied at equilibrium, for simple one-to-one binding.
